The record followed here is article PMC7610778 (Science (New York, N.Y.), 2020).

B4: Atg12–Atg5-Atg16-mCherry complex (complex)
chain 1: MSRILESENETESDESSIISTNNGTAMERSRNNQELRSSPHTVQNRLELFSRRLSQLGLASDISVDQQVEDSSSGTYEQEETIKTNAQTSKQKSHKDEKNIQKIQIKFQPIGSIGQLKPSVCKISMSQSFAMVILFLKRRLKMDHVYCYINNSFAPSPQQNIGELWMQFKTNDELIVSYCASVAFG
chain 2: MNDIKQLLWNGELNVLVSIDPSFLMKGSPREIAVLRIRVPRETYLVNYMPLIWNKIKSFLSFDPLTDSEKYFWFEHNKTPIPWNYPVGVLFDCLAGKSATFTTSFENQVKDVLTFLRIHLVMGDSLPPTIIPIASSKTQAEKFWFHQWKQVCFILNGSSKAIMSLSVNEARKFWGSVITRNFQDFIEISNKISSSRPRHIPLIIQTSRTSGTFRISQPTISMTGVNPTLKDIEGDILDVKEGINGNDVMVICQGIEIPWHMLLYDLYSKLRSFDGFLYITLVPIKGGDKASSEL
chain 3: MGNFIITERKKAKEERSNPQTDSMDDLLIRRLTDRNDKEAHLNELFQDNSGAIGGNIVSHDDALLNTLAILQKELKSKEQEIRRLKEVIALKNKNTERLNDELISGTIENNVLQQKLSDLKKEHSQLVARWLKKTEKETEAMNSEIDGTK
modifications: Atg12–Atg5 conjugate | Atg12–Atg5 conjugate

Common to all, as to test: pull-down
Test [1] addresses T1, Atg19-3D (S390D, S391D, S396D) (S. cerevisiae, UniProt P35193 1-415, S390D | S391D | S396D).
T1 sequence: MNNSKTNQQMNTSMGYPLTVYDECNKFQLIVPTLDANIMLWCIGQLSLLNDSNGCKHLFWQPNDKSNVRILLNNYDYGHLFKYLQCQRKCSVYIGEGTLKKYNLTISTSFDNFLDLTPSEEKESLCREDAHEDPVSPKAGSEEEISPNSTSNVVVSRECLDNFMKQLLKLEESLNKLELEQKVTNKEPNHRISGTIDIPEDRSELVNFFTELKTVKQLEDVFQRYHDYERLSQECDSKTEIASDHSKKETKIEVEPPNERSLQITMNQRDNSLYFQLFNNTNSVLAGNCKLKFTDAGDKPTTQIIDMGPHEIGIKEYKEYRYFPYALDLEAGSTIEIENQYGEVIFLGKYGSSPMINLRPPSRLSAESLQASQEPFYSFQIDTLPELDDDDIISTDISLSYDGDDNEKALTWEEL

Test [2] has as its target B4.
The target of test [3] is B4. This is another data set of the same source.
Test [4] deals with Atg2-mEGFP (yeast (S. cerevisiae), UniProt P53855 1-1592).
Test [5] concerns the target Atg2-GFP-Atg18-CBP complex (yeast (S. cerevisiae), UniProt P53855;P43601).

Read-outs that look alike come from different tables or passages of the source.

Sequence of Atg2-GFP-Atg18-CBP complex (P53855 whole entry, one chain of several): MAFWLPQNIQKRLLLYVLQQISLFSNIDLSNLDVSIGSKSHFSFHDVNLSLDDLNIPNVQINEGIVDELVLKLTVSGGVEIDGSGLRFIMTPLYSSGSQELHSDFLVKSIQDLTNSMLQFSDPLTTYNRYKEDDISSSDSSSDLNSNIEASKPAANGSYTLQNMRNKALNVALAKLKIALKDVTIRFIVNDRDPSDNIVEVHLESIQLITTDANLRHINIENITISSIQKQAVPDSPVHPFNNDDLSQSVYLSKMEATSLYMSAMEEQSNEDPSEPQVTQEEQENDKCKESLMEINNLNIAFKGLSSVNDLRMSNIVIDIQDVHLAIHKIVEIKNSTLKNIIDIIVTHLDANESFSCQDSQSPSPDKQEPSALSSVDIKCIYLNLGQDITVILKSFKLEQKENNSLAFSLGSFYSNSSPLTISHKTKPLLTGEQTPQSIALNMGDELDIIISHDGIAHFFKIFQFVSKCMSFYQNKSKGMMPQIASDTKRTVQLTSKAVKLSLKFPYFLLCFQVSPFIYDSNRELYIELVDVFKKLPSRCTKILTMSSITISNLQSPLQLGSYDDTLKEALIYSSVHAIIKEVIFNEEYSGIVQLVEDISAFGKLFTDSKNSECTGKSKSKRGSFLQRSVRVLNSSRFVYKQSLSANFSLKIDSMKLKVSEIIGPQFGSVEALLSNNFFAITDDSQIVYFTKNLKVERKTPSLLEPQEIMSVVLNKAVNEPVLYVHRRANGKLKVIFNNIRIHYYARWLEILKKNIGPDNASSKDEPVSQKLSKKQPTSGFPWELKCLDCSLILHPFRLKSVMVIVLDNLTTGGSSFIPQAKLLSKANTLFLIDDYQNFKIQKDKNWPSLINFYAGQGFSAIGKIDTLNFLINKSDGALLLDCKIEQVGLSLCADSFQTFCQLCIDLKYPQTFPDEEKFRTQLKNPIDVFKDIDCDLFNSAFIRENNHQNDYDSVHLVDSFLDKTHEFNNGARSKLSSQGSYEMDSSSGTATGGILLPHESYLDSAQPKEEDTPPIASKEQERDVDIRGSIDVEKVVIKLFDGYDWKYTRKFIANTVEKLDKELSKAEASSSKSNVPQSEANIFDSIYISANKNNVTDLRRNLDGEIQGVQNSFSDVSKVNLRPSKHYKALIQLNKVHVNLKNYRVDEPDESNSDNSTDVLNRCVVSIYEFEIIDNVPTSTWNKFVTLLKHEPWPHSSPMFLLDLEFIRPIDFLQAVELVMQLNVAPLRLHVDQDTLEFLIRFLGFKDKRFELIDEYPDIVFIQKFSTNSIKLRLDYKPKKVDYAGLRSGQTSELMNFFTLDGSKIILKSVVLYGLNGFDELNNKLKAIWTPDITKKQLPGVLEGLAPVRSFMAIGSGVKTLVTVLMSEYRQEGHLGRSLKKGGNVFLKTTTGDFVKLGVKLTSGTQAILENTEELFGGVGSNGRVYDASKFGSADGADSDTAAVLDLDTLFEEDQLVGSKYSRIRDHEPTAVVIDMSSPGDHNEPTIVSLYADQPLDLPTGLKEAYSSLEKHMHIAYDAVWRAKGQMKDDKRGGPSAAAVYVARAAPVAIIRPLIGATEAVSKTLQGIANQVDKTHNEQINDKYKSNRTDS
Sequence of Atg2-mEGFP (P53855 whole entry): as the sequence (P53855 whole entry, one chain of several) above

B1: GST-prApe1 (1-41) (domain or fragment)
chain: MEEQREILEQLKKTLQMLTVEPSKNNQIANEEKEKKENENS
As for B1, the binding result in test [1] is on record as “binds”.

B2: Atg18-mEGFP (natural protein)
chain: MSDSSPTINFINFNQTGTCISLGTSKGFKIFNCEPFGKFYSEDSGGYAIVEMLFSTSLLALVGIGDQPALSPRRLRIINTKKHSIICEVTFPTSILSVKMNKSRLVVLLQEQIYIYDINTMRLLHTIETNPNPRGLMAMSPSVANSYLVYPSPPKVINSEIKAHATTNNITLSVGGNTETSFKRDQQDAGHSDISDLDQYSSFTKRDDADPTSSNGGNSSIIKNGDVIVFNLETLQPTMVIEAHKGEIAAMAISFDGTLMATASDKGTIIRVFDIETGDKIYQFRRGTYATRIYSISFSEDSQYLAVTGSSKTVHIFKLGHSMSNNKLDSDDSNMEEAAADDSSLDTTSIDALSDEENPTRLAREPYVDASRKTMGRMIRYSSQKLSRRAARTLGQIFPIKVTSLLESSRHFASLKLPVETNSHVMTISSIGSPIDIDTSEYPELFETGNSASTESYHEPVMKMVPIRVVSSDGYLYNFVMDPERGGDCLILSQYSILMD
For the molecule B2, the binding result in test [2] is “binds”.

B3: mEGFP-Atg21 (natural protein)
chain: MKVLQFNQDATCCVVAASSHQISIFNCDPFGKCFEIDTKNSKKKTSNNNGSASNSESRNNEESILITNGSRDRTDAEEEEDNEDNALVTGNILKEGEFVIEMLFSTSLIAIADRGQGLNKGKKLKIVNTKRKCTICEIVFPHEIVDVVMNRKRMCVLLESDQIFIYDISCMKPLETIDLWEDHYKRSQANSFSNASNTGTLEGDSANLNRVATNLLANATQKSVNGSNPSVRTRRNSLRSKIRPRMVLSNDDRSILCFTAYSSPKKNKPNSEALYDVVIYDTLNVTPVNYLNSVHKGNVACLAVSHDGKLLATASDKGTIIRVFHTGVDSDYMSSRSLFKEFRRGTRLCNLYQLAFDKSMTMIGCVGDTDTIHLFKLDDASNSLPGDNSSNGHWNEEEYILASNSNPSMGTPKEIPLSKPRIANYFSKKIKSSIPNQNLSRNFAYITVNESNRSCLGFPDEFPNQVYIASDDGTFSIYSIPSKPGECVLTKNNKFT
With B3, the binding result in test [3] was “binds”.
As to B4, the binding result in test [4] and in test [5] was “binds” each time.
